{
  "source": "patent US10279017B2",
  "about": "(priority 2014, dated 2019)",
  "molecules": {"B1": {"name": "IMPIα: insect metalloproteinase inhibitor from G. mellonella, 69 amino acids; M4-metalloprotease inhibitor (protein, listed as Galleria mellonella)", "chain": "IVLICNGGHEYYECGGACDNVCADLHIQNKTNCPIINIRCNDKCYCEDGYARDVNGKCIPIKDCPKIRS"}},
  "key": {"[1]": {"tested_on": "human aortic smooth muscle cell (HASMC)", "conditions": "coating containing GM6001 compared to metallic substrate only, cited from earlier work"}, "HASMCs": {"tested_on": "HASMCs", "conditions": "GM6001 released from PLGA coating compared to metallic substrate only; cited from earlier work"}, "MMP2 [2]": {"target": "T1, MMP2 (Homo sapiens, UniProt P08253)", "T1 sequence (P08253 110-660)": "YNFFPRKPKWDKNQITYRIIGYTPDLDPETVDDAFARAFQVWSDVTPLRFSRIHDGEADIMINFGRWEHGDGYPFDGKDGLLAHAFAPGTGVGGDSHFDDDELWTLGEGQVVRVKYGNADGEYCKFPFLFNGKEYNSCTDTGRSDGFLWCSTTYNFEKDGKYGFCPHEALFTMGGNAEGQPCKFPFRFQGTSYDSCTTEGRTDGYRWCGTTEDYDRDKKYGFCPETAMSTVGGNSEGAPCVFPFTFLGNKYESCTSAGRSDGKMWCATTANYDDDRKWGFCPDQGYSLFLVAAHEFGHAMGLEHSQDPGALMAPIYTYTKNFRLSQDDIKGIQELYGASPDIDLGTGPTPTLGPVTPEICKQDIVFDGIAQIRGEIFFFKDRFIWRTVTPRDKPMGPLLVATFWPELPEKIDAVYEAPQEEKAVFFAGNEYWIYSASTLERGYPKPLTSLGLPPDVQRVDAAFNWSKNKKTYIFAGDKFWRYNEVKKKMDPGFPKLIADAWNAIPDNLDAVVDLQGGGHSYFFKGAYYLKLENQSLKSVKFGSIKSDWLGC", "parameters": "endogenous in cells; host or cells: human aortic smooth muscle cells (HASMC)", "conditions": "GM6001 releasing coating vs metal substrate; cited from earlier work"}, "pseudolysin [3]": {"target": "T2, pseudolysin (Pseudomonas aeruginosa, UniProt P14756)", "T2 sequence (P14756 198-498)": "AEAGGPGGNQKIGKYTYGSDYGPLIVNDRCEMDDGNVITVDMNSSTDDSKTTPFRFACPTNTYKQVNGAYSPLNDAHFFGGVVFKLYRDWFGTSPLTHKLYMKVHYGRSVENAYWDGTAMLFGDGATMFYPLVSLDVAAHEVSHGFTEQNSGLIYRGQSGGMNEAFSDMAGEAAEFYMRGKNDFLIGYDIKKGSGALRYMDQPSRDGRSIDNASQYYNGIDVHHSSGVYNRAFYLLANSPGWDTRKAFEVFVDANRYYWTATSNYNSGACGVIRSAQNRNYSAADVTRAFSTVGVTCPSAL", "conditions": "Cathgart G. R. et al, 2011; cited from earlier work"}, "[4]": {"tested_on": "P. aeruginosa (DSM No. 50071)", "assay": "Gentamycin MIC determination, microtiter broth dilution", "type": "cell-based, Pseudomonas aeruginosa", "conditions": "reference strain DSM No. 50071, partially resistant to Gentamycin", "method": "(§1) Gentamycin MIC (minimal inhibitory concentration) values were determined using a standard two fold microtiter broth dilution protocol with Nutrient Broth as medium. Midexponential phase cultures of P. aeruginosa reference strain DSM No.: 50071 and two antibiotic-resistant clinical isolates (P. aeruginosa VB7623 and VB7444), which were isolated from the tracheal secrete of a patient, were tested. Antimicrobial susceptibility testing of the clinical isolates was performed by the University Clinic Tubingen. […] Further, the OD (optical density) at 600 nm in the presence and absence of the insect metalloprotease inhibitor IMPI was investigated. For assessing influences of IMPI on bacterial growth final concentrations of IMPI between 20 and 75 μM were used. Bacterial growth was monitored at 37° C. over 48 h. All MIC values were done as triplicates."}, "[5]": {"tested_on": "P. aeruginosa cultures VB7623", "assay": "growth curves (OD 600 nm) of clinical isolate", "type": "cell-based, Pseudomonas aeruginosa", "method": "as §1"}, "Pseudomonas aeruginosa": {"tested_on": "Pseudomonas aeruginosa", "assay": "formation of freely suspended biofilm in flocs (FIG. 4)", "type": "cell-based", "conditions": "incubated with IMPIα at 62.5 and 125 ng/ml Gm doses", "method": "FIG. 4: The formation of freely suspended biofilm in flocs is a successful strategy used by Pseudomonas aeruginosa to overcome stressfull envionmental conditions (e.g. addition of Gentamicin Gm to buffer; Panel A (62.5 ng/ml) and B (125 ng/ml))."}, "[6]": {"tested_on": "P. aeruginosa (Clinical Isolate VB7623)", "assay": "pyoveridine development and planktonic biofilm in 96-well plate", "type": "cell-based, Pseudomonas aeruginosa", "conditions": "after 48 h", "method": "FIG. 9: Comparison of the development of pyoveridine (dark grey background in circular light grey structure, i.e. the plate wells) during growth of P. aeruginosa (Clinical Isolate VB7623 from tracheal secrete, assessed as 4MRGN strain [EUCAST]) in presence (lower rectangle) and absence (upper rectangle) of the M4-metalloprotease inhibitor IMPIα (73 μM; NB-Medium No. 5), and different Gentamycin concentrations (32; 8; 4; 2; 1; 0.5; 0.25; 0.125 μg/ml) in a 96-well plate after 48 h. Pyoveridine is not expressed in the concurrent presence of IMPI and Gentamycin, not even at gentamycin concentrations as low as 0.125 μg/\nFIG. 15: Comparison of the development of planctonic biofilm and pyoveridine (grey colour in the wells) during growth of P. aeruginosa (clinical isolate VB7623 from tracheal secrete, assessed as 4MRGN strain [EUCAST]) in the presence (black outlined rectangle) and absence (double outlined rectangle) of the M4-metalloprotease inhibitor IMPI (60 μM; NB-Medium No. 5) in a 96-well plate after 48 h.\nas §1"}, "P. aeruginosa": {"tested_on": "P. aeruginosa", "assay": "synthesis of siderophore pyoverdine", "type": "cell-based, Pseudomonas aeruginosa", "conditions": "IMPIα together with the antibiotic gentamycin"}, "bacillolysin": {"tested_on": "bacillolysin", "conditions": "cited from earlier work"}, "MMP1": {"target": "T3, MMP1 (Homo sapiens, UniProt P03956)", "T3 sequence (P03956 100-469)": "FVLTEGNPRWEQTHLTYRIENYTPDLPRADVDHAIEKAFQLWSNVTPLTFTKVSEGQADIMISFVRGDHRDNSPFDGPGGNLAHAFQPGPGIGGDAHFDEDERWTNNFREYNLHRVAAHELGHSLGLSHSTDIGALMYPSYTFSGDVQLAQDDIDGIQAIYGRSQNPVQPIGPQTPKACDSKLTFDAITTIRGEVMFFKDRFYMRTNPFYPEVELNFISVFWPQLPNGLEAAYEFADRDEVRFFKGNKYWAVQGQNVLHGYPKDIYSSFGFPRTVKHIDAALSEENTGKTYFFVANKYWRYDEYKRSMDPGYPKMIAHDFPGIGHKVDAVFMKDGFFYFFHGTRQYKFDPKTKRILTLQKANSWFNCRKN", "conditions": "cited from earlier work"}, "MMP2 [7]": {"target": "T1, MMP2", "conditions": "cited from earlier work"}, "thermolysin": {"target": "thermolysin (Bacillus thermoproteolyticus, UniProt P00800)", "sequence (P00800 233-548)": "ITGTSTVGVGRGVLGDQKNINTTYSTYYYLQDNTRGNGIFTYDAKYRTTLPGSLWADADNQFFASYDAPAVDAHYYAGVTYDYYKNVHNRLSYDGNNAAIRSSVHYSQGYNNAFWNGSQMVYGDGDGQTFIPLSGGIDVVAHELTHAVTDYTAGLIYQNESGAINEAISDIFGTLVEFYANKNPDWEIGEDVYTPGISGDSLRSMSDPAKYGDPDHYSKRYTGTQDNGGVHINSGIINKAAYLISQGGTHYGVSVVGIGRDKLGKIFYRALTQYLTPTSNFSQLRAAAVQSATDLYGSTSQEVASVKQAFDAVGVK", "conditions": "cited from earlier work"}, "pseudolysin [8]": {"target": "T2, pseudolysin", "conditions": "cited from earlier work"}},
  "note": "Read-outs that look alike come from different tables or passages of the source.",
  "data": [
    {"molecule": "CNC(=O)[C@H](Cc1c[nH]c2ccccc12)NC(=O)[C@@H](CC(=O)NO)CC(C)C", "note": "[GM6001]", "values": [
      {"measurement": "reduction of rate of in vitro cell growth", "setting": "[1]; after 4 days", "result": 30.7, "unit": "%"},
      {"measurement": "reduction of rate of in vitro cell growth", "setting": "[1]; after 7 days", "result": 37.4, "unit": "%"},
      {"measurement": "decrease of migration", "setting": "HASMCs", "result": 21.4, "unit": "%"},
      {"measurement": "MMP-2 activity normalized to cell number", "setting": "MMP2 [2]", "result": "not statistically different"}
    ]},
    {"molecule": "NC(=O)C(Cc1ccc(O)cc1)NC(=O)C(Cc1ccccc1)NC(=O)CS", "note": "(stereo not drawn) [N-mercaptoacetyl-Phe-Tyr-amide]", "values": [
      {"measurement": "Ki", "setting": "pseudolysin [3]", "result": 41, "unit": "nM"}
    ]},
    {"molecule": "Gentamicin [Gentamycin]", "values": [
      {"measurement": "MIC", "setting": "[4]", "result": 8, "unit": "µg/mL"},
      {"measurement": "growth rate", "setting": "[5]; low concentrations of gentamycin, after 26 h in NB-medium", "result": "enhance growth"},
      {"measurement": "growth rate", "setting": "[5]; very low concentrations of gentamycin", "result": "no effect"}
    ]},
    {"molecule": "B1", "values": [
      {"measurement": "biofilm formation", "setting": "Pseudomonas aeruginosa", "result": "biofilm formation is prohibited"},
      {"measurement": "planctonic biofilm", "setting": "[6]; IMPI 60 μM, no antibiotic", "result": "no plantonic biofilm can be observed"},
      {"measurement": "pyoveridine secretion", "setting": "[6]; IMPI 60 μM, no antibiotic, NB-Medium No. 5", "result": "secreted less"},
      {"measurement": "pyoveridine expression", "setting": "[6]; IMPIα 73 μM with Gentamycin down to 0.125 μg/ml, NB-Medium No. 5", "result": "not expressed"},
      {"measurement": "synthesis of pyoverdine", "setting": "P. aeruginosa", "result": "inhibited synergistically"},
      {"measurement": "IC60", "setting": "bacillolysin", "result": 0.86, "unit": "nM"},
      {"measurement": "inhibition", "setting": "MMP1", "result": "negligible inhibition"},
      {"measurement": "inhibition", "setting": "MMP2 [7]", "result": "negligible inhibition"},
      {"measurement": "IC60", "setting": "thermolysin", "result": 0.62, "unit": "nM"},
      {"measurement": "IC60", "setting": "pseudolysin [8]", "result": 81.66, "unit": "nM"}
    ]}
  ]
}
